# B1: SI-75E2 (other)
# chain 1: EIVLTQSPSTLSVSPGERATFSCRASQSIGTNIHWYQQKPGKPPRLLIKYASESISGIPDRFSGSGSGTEFTLTISSVQSEDFAVYYCQQNNNWPTTFGPGTKLTVLGGGGSGGGGSGGGGSGGGGSQVQLQQSGPGLVKPSETLSITCTVSGFSLTNYGVHWIRQAPGKGLEWLGVIWSGGNTDYNTPFTSRFTITKDNSKNQVYFKLRSVRADDTAIYYCARALTYYDYEFAYWGQGTLVTVSSGGGGSGGGGSEVQLVESGGGLVQPGGSLRLSCAASGFTISTNAMSWVRQAPGKGLEWIGVITGRDITYYASWAKGRFTISRDNSKNTLYLQMNSLRAEDTAVYYCARDGGSSAITSNNIWGQGTLVTVSSASTKGPSVFPLAPSSKSTSGGTAALGCLVKDYFPEPVTVSWNSGALTSGVHTFPAVLQSSGLYSLSSVVTVPSSSLGTQTYICNVNHKPSNTKVDKRVEPKSCDKTHTCPPCPAPEAAGGPSVFLFPPKPKDTLMISRTPEVTCVVVDVSHEDPEVKFNWYVDGVEVHNAKTKPREEQYNSTYRVVSVLTVLHQDWLNGKEYKCAVSNKALPAPIEKTISKAKGQPREPQVYTLPPSRDELTKNQVSLSCAVKGFYPSDIAVEWESNGQPENNYKTTPPVLDSDGSFFLVSKLTVDKSRWQQGNVFSCSVMHEALHNHYTQKSLSLSPG
# chain 2: QSALTQPASVSGSPGQSITISCTGTSSDVGGYNFVSWYQQHPGKAPKLMIYDVSDRPSGVSDRFSGSKSGNTASLIISGLQADDEADYYCSSYGSSSTHVIFGGGTKVTVLGGGGSGGGGSGGGGSGGGGSQVQLQESGGGLVKPGGSLSLSCAASGFTFSSYWMSWVRQAPGKGLEWVANINRDGSASYYVDSVKGRFTISRDDAKNSLYLQMNSLRAEDTAVYYCARDRGVGYFDLWGRGTLVTVSSGGGGSGGGGSDVVMTQSPSTLSASVGDRVTINCQASESISSWLAWYQQKPGKAPKLLIYEASKLASGVPSRFSGSGSGTEFTLTISSLQPDDFATYYCQGYFYFISRTYVNSFGGGTKVEIKRTVAAPSVFIFPPSDEQLKSGTASVVCLLNNFYPREAKVQWKVDNALQSGNSQESVTEQDSKDSTYSLSSTLTLSKADYEKHKVYACEVTHQGLSSPVTKSFNRGECGGDKTHTCPPCPAPEAAGGPSVFLFPPKPKDTLMISRTPEVTCVVVDVSHEDPEVKFNWYVDGVEVHNAKTKPREEQYNSTYRVVSVLTVLHQDWLNGKEYKCAVSNKALPAPIEKTISKAKGQPREPQVYTLPPSRDELTKNQVSLWCLVKGFYPSDIAVEWESNGQPENNYKTTPPVLDSDGSFFLYSKLTVDKSRWQQGNVFSCSVMHEALHNRFTQKSLSLSPGGGGGSGGGGSDIQMTQSPSTLSASVGDRVTITCQASQSISSHLNWYQQKPGKAPKLLIYKASTLASGVPSRFSGSGSGTEFTLTISSLQPDDFATYYCQQGYSWGNVDNVFGGGTKVTVLGGGGSGGGGSGGGGSGGGGSEVQLLESGGGLVQPGGSLSLSCAASGFSFSSGYDMCWVRQAPGKGLEWIACIAAGSAGITYDANWAKGRFTISRDNSKNTLYLQMNSLRAEDTAVYYCARSAFSFDYAMDLWGQGTLVTVSS
# notes: tetra-miniGNC; D1 αEGFR, D2 αHER3, D3 αCD3 (Fab), D5 αPD-L1; also called tetra-miniGNC (SI-75E2)
# B2: SI-75E1 (other)
# chain 1: EIVLTQSPSTLSVSPGERATFSCRASQSIGTNIHWYQQKPGKPPRLLIKYASESISGIPDRFSGSGSGTEFTLTISSVQSEDFAVYYCQQNNNWPTTFGPGTKLTVLGGGGSGGGGSGGGGSGGGGSQVQLQQSGPGLVKPSETLSITCTVSGFSLTNYGVHWIRQAPGKGLEWLGVIWSGGNTDYNTPFTSRFTITKDNSKNQVYFKLRSVRADDTAIYYCARALTYYDYEFAYWGQGTLVTVSSGGGGSGGGGSEVQLVESGGGLVQPGGSLRLSCAASGFTISTNAMSWVRQAPGKGLEWIGVITGRDITYYASWAKGRFTISRDNSKNTLYLQMNSLRAEDTAVYYCARDGGSSAITSNNIWGQGTLVTVSSASTKGPSVFPLAPSSKSTSGGTAALGCLVKDYFPEPVTVSWNSGALTSGVHTFPAVLQSSGLYSLSSVVTVPSSSLGTQTYICNVNHKPSNTKVDKRVEPKSCDKTHTCPPCPAPEAAGGPSVFLFPPKPKDTLMISRTPEVTCVVVDVSHEDPEVKFNWYVDGVEVHNAKTKPREEQYNSTYRVVSVLTVLHQDWLNGKEYKCAVSNKALPAPIEKTISKAKGQPREPQVYTLPPSRDELTKNQVSLSCAVKGFYPSDIAVEWESNGQPENNYKTTPPVLDSDGSFFLVSKLTVDKSRWQQGNVFSCSVMHEALHNHYTQKSLSLSPGGGGGSGGGGSDVVMTQSPSSVSASVGDRVTITCQASQNIRTYLSWYQQKPGKAPKLLIYAAANLASGVPSRFSGSGSGTDFTLTISDLEPGDAATYYCQSTYLGTDYVGGAFGGGTKLTVLGGGGSGGGGSGGGGSGGGGSEVQLVESGGGLVQPGGSLRLSCTASGFTISSYHMQWVRQAPGKGLEYIGTISSGGNVYYASSARGRFTISRPSSKNTVDLQMNSLRAEDTAVYYCARDSGYSDPMWGQGTLVTVSS
# chain 2: QSALTQPASVSGSPGQSITISCTGTSSDVGGYNFVSWYQQHPGKAPKLMIYDVSDRPSGVSDRFSGSKSGNTASLIISGLQADDEADYYCSSYGSSSTHVIFGGGTKVTVLGGGGSGGGGSGGGGSGGGGSQVQLQESGGGLVKPGGSLSLSCAASGFTFSSYWMSWVRQAPGKGLEWVANINRDGSASYYVDSVKGRFTISRDDAKNSLYLQMNSLRAEDTAVYYCARDRGVGYFDLWGRGTLVTVSSGGGGSGGGGSDVVMTQSPSTLSASVGDRVTINCQASESISSWLAWYQQKPGKAPKLLIYEASKLASGVPSRFSGSGSGTEFTLTISSLQPDDFATYYCQGYFYFISRTYVNSFGGGTKVEIKRTVAAPSVFIFPPSDEQLKSGTASVVCLLNNFYPREAKVQWKVDNALQSGNSQESVTEQDSKDSTYSLSSTLTLSKADYEKHKVYACEVTHQGLSSPVTKSFNRGECGGDKTHTCPPCPAPEAAGGPSVFLFPPKPKDTLMISRTPEVTCVVVDVSHEDPEVKFNWYVDGVEVHNAKTKPREEQYNSTYRVVSVLTVLHQDWLNGKEYKCAVSNKALPAPIEKTISKAKGQPREPQVYTLPPSRDELTKNQVSLWCLVKGFYPSDIAVEWESNGQPENNYKTTPPVLDSDGSFFLYSKLTVDKSRWQQGNVFSCSVMHEALHNRFTQKSLSLSPG
# notes: tetra-miniGNC; D1 αEGFR, D2 αHER3, D3 αCD3 (Fab), D4 α4-1BB
# Experiments:
# Assay in all cases: BLI (Octet), binder on AHC sensor, 100 nM human antigen, 1:1 fit
# [1] = target: T1, human CD3 (human, UniProt P07766 23-126; P04234 22-105)
# T1 construct: also called His-tagged human CD3; human CD3 (Acro CDD-H52W1)
# [2] = target: T2, human EGFR (human, UniProt P00533 25-645, limits assumed)
# T2 construct: Soluble antigen in Octet; construct not described
# [3] = target: T3, human HER3 (human, UniProt P21860 20-643)
# T3 construct: Soluble antigen in Octet; bought; also called human HER3 (Acro ER3-H5223)
# [4] = target: T4, human PD-L1 (human, UniProt Q9NZQ7 19-238)
# T4 construct: Soluble antigen in Octet; bought; also called human PD-L1 (Acro PD1-H5229)
# [5] = target: T5, human 4-1BB (human, UniProt Q07011 24-186, limits assumed)
# T5 construct: Soluble antigen in Octet; construct not described
Binder,Kd [1],Kd [2],Kd [3],Kd [4],Kd [5]
B1,22.1 nM,8.24 nM,114 nM,1.36 nM,–
B2,20.3 nM,8.9 nM,185 nM,–,17.8 nM

# Reference: patent US20230114801A1 (SYSTIMMUNE, published 2023)
